For assay [1], the target named is T1, recombinant CD74 ectodomain (sCD74 = CD74 73-232) (UniProt P04233-2 73-232).
T1 sequence (looked up): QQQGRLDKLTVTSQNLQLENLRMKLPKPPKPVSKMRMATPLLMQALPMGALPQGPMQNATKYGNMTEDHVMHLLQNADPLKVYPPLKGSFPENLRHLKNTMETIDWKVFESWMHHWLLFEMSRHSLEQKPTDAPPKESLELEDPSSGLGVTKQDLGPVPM
As to the kind of experiment: ELISA.

The target of assay [2] is T1, recombinant CD74 ectodomain (sCD74 = …). In words: SPR.
Assay [3] shares this target. As to the kind of experiment: SPR. This is another data set of the same source.

Read-outs that look alike come from different tables or passages of the source.

B1: biotinylated MIF (ligand, UniProt P14174 1-115, looked up)
chain: MPMFIVNTNVPRASVPDGFLSELTQQLAQATGKPPQYIAVHVVPDQLMAFGGSSEPCALCSLHSIGKIGGAQNRSYSKLLCGLLAERLRISPDRVYINYYDMNAANVGWNNSTFA
modifications: biotin (site not stated)
B1: in assay [1], the “fold increase of MIF bound with 500 nM MIF20 against MIF without agonist” value is roughly 2.5 fold.

B2: human macrophage migration inhibitory factor (MIF) (ligand, UniProt P14174 1-115, looked up)
chain: MPMFIVNTNVPRASVPDGFLSELTQQLAQATGKPPQYIAVHVVPDQLMAFGGSSEPCALCSLHSIGKIGGAQNRSYSKLLCGLLAERLRISPDRVYINYYDMNAANVGWNNSTFA
For the molecule B2, the Kd came out at 2.25 nM in assay [2] and 6.06 nM in assay [3].

For the origin of these results see paper PMC3781594 (Circulation, 2013).
